Measurements taken from paper PMC9482650, “Quantitative fragmentomics allow affinity mapping of interactomes” (Nature Communications, 2022).

T1: DVL3, Q92997
T1 sequence (Q92997 244-331, limits assumed, looked up): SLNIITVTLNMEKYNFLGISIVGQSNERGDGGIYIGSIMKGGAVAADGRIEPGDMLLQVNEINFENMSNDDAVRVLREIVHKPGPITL

T2: RHPN1, Q8TCX5
T2 sequence (Q8TCX5 508-602, limits assumed, looked up): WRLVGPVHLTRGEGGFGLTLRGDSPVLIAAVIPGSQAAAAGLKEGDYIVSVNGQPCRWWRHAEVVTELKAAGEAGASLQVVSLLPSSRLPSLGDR

T3: SNTG2, Q9NY99
T3 sequence (Q9NY99 68-166, limits assumed, looked up): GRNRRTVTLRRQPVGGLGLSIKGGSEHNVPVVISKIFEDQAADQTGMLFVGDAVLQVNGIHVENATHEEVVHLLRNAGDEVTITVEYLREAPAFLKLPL

T4: SHANK1, Q9Y566
T4 sequence (Q9Y566 658-767, limits assumed, looked up): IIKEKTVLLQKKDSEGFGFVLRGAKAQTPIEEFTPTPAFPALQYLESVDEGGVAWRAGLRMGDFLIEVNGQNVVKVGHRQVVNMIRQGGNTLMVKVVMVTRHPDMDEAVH

T5: MPDZ_12, O75970
T5 sequence (O75970 1857-1958, limits assumed, looked up): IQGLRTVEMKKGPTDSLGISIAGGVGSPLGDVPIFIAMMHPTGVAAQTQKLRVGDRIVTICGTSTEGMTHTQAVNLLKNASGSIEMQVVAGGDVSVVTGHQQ

T6: PARD3B_1, Q8TEW8
T6 sequence (Q8TEW8 196-299, limits assumed, looked up): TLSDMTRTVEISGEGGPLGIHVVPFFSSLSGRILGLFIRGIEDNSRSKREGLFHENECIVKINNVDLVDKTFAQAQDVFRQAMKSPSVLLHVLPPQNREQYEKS

T7: DLG3_1, Q92796
T7 sequence (Q92796 125-227, limits assumed, looked up): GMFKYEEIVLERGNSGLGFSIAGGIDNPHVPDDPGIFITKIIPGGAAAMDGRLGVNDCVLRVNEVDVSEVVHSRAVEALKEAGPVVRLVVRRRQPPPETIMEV

T8: NHERF3_4, Q5T2W1
T8 sequence (Q5T2W1 373-468, limits assumed, looked up): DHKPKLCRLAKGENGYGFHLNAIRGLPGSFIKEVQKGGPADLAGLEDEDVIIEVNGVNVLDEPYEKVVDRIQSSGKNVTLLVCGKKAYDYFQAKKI

T9: DLG3_2, Q92796
T9 sequence (Q92796 221-321, limits assumed, looked up): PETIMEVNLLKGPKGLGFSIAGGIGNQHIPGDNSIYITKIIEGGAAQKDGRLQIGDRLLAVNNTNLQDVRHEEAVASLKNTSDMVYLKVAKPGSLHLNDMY

T10: APBA2_1, Q99767
T10 sequence (Q99767 563-664, limits assumed, looked up): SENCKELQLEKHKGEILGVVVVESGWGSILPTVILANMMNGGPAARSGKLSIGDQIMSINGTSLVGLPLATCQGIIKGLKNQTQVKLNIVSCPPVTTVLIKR


Legend:
Assay in all cases: holdup assay
Set-up in all cases: key: below the threshold = too weak to quantify, mostly under pKd 3.1 to 4
Settings in all cases: plain residues with an end cap or a label only (N-terminal biotin on a linker: ado-ado)
DVL3, Q92997 = biological target: T1, DVL3, Q92997
MAST2, Q6P0Q8 = biological target: MAST2, Q6P0Q8
FRMPD2_1, Q68DX3 = biological target: FRMPD2_1, Q68DX3
LNX1_1, Q8TBB1 = biological target: LNX1_1, Q8TBB1
Inadl_8, Q8NI35 = biological target: Inadl_8, Q8NI35
RHPN1, Q8TCX5 = biological target: T2, RHPN1, Q8TCX5
SNTG2, Q9NY99 = biological target: T3, SNTG2, Q9NY99
IL16_3, Q14005 = biological target: IL16_3, Q14005
GORASP2, Q9H8Y8 = biological target: GORASP2, Q9H8Y8
Inadl_6, Q8NI35 = biological target: Inadl_6, Q8NI35
GRID2IP_2, A4D2P6 = biological target: GRID2IP_2, A4D2P6
LNX1_2, Q8TBB1 = biological target: LNX1_2, Q8TBB1
SHANK1, Q9Y566 = biological target: T4, SHANK1, Q9Y566
MAST1, Q9Y2H9 = biological target: MAST1, Q9Y2H9
TJP1_2, Q07157 = biological target: TJP1_2, Q07157
PARD3_3, Q8TEW0 = biological target: PARD3_3, Q8TEW0
MPDZ_12, O75970 = biological target: T5, MPDZ_12, O75970
PARD3B_1, Q8TEW8 = biological target: T6, PARD3B_1, Q8TEW8
DLG3_1, Q92796 = biological target: T7, DLG3_1, Q92796
NHERF3_4, Q5T2W1 = biological target: T8, NHERF3_4, Q5T2W1
SCRIB_1, Q14160 = biological target: SCRIB_1, Q14160
DLG3_2, Q92796 = biological target: T9, DLG3_2, Q92796
GOPC, Q9HD26 = biological target: GOPC, Q9HD26
APBA2_1, Q99767 = biological target: T10, APBA2_1, Q99767
LIMK2, P53671 = biological target: LIMK2, P53671
GRIP2_4, Q9C0E4 = biological target: GRIP2_4, Q9C0E4
SCRIB_2, Q14160 = biological target: SCRIB_2, Q14160
Sequence of SCRIB_2, Q14160 (Q14160 857-960): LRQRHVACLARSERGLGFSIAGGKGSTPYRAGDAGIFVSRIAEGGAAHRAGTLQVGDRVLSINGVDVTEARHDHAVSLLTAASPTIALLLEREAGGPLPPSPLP

Sequence of GRIP2_4, Q9C0E4 (Q9C0E4 446-548): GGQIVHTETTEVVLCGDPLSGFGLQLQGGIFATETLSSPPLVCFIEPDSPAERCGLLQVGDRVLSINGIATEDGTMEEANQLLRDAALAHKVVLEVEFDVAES
Sequence of LNX1_1, Q8TBB1 (Q8TBB1 261-371): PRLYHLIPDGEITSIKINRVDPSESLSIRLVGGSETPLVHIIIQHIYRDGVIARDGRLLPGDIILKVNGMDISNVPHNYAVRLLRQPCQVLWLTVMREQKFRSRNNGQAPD
Sequence of GRID2IP_2, A4D2P6 (A4D2P6 272-370): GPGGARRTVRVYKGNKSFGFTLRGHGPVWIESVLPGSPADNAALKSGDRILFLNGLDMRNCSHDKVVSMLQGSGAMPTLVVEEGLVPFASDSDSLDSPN
Sequence of Inadl_8, Q8NI35 (Q8NI35 1425-1530): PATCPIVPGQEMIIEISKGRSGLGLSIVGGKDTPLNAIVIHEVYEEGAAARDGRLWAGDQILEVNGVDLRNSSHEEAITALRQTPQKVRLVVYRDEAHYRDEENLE
Sequence of Inadl_6, Q8NI35 (Q8NI35 1058-1167): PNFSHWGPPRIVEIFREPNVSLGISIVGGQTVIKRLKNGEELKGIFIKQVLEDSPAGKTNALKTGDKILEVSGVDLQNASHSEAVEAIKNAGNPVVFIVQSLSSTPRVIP
Sequence of MAST2, Q6P0Q8 (Q6P0Q8 1099-1202): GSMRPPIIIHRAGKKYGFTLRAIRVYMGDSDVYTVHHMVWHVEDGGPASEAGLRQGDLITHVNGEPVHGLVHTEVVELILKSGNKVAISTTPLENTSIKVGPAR
Sequence of TJP1_2, Q07157 (Q07157 181-274): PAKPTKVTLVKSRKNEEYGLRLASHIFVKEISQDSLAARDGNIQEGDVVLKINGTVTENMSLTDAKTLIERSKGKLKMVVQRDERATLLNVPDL
Sequence of MAST1, Q9Y2H9 (Q9Y2H9 962-1065): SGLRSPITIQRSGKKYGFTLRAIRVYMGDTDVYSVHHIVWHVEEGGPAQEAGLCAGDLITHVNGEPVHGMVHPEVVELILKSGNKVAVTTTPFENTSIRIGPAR
Sequence of FRMPD2_1, Q68DX3 (Q68DX3 770-861): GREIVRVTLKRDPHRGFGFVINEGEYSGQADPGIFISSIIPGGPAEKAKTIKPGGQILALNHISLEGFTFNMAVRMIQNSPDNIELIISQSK
Sequence of LIMK2, P53671 (P53671 143-248): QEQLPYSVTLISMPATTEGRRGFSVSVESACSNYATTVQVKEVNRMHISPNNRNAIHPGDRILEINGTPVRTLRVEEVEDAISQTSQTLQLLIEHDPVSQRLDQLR
Sequence of IL16_3, Q14005 (Q14005 1107-1207): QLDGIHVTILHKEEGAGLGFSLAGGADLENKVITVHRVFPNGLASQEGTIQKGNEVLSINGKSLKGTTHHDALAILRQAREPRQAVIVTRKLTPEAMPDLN
Sequence of LNX1_2, Q8TBB1 (Q8TBB1 371-470): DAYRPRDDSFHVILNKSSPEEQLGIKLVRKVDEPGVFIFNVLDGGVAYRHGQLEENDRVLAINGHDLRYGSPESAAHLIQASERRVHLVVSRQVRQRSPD
Sequence of SCRIB_1, Q14160 (Q14160 718-814): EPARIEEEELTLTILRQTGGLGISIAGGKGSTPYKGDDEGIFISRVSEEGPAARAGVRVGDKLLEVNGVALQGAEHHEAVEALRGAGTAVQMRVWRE
Sequence of PARD3_3, Q8TEW0 (Q8TEW0 582-685): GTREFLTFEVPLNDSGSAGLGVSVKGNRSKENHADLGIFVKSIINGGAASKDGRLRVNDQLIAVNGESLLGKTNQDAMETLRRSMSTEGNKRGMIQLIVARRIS

Binder	pKd (DVL3, Q92997)	pKd (MAST2, Q6P0Q8)	pKd (FRMPD2_1, Q68DX3)	pKd (LNX1_1, Q8TBB1)	pKd (Inadl_8, Q8NI35)	pKd (RHPN1, Q8TCX5)	pKd (SNTG2, Q9NY99)	pKd (IL16_3, Q14005)	pKd (GORASP2, Q9H8Y8)	pKd (Inadl_6, Q8NI35)	pKd (GRID2IP_2, A4D2P6)	pKd (LNX1_2, Q8TBB1)	pKd (SHANK1, Q9Y566)	pKd (MAST1, Q9Y2H9)	pKd (TJP1_2, Q07157)	pKd (PARD3_3, Q8TEW0)	pKd (MPDZ_12, O75970)	pKd (PARD3B_1, Q8TEW8)	pKd (DLG3_1, Q92796)	pKd (NHERF3_4, Q5T2W1)	other results
QFTLRHWLKV [SLC6A3, Q01959]	below the threshold	4.82	3.71	below the threshold	below the threshold	below the threshold	below the threshold	below the threshold	4.56	below the threshold	below the threshold	3.84	below the threshold	4.24	4.19	below the threshold	below the threshold	3.87	below the threshold	3.74	pKd (SCRIB_1, Q14160): below the threshold; pKd (DLG3_2, Q92796): below the threshold; pKd (GOPC, Q9HD26): 3.51; pKd (APBA2_1, Q99767): 3.48; pKd (LIMK2, P53671): below the threshold; pKd (GRIP2_4, Q9C0E4): below the threshold; pKd (SCRIB_2, Q14160): below the threshold
PASAKGPLGV [CLDN19, Q8N6F1]	below the threshold	below the threshold	below the threshold	below the threshold	below the threshold	below the threshold	below the threshold	below the threshold	below the threshold	below the threshold	below the threshold	below the threshold	below the threshold	3.69	below the threshold	below the threshold	below the threshold	below the threshold	below the threshold	below the threshold	pKd (SCRIB_1, Q14160): below the threshold; pKd (DLG3_2, Q92796): below the threshold; pKd (GOPC, Q9HD26): below the threshold; pKd (APBA2_1, Q99767): below the threshold; pKd (LIMK2, P53671): below the threshold; pKd (GRIP2_4, Q9C0E4): below the threshold; pKd (SCRIB_2, Q14160): below the threshold
GQSVDLVFPV [AKIP1, Q9NQ31]	below the threshold	4.15	below the threshold	3.66	below the threshold	below the threshold	below the threshold	below the threshold	4.37	below the threshold	below the threshold	3.75	below the threshold	4.1	below the threshold	3.66	3.58	3.8	below the threshold	below the threshold	pKd (SCRIB_1, Q14160): below the threshold; pKd (DLG3_2, Q92796): below the threshold; pKd (GOPC, Q9HD26): below the threshold; pKd (APBA2_1, Q99767): 3.59; pKd (LIMK2, P53671): below the threshold; pKd (GRIP2_4, Q9C0E4): below the threshold; pKd (SCRIB_2, Q14160): below the threshold
RELVMRVTTV [MARCHF4, Q9P2E8]	below the threshold	5.29	3.48	3.98	5.5	4.06	4.64	below the threshold	5.54	3.95	4.06	4.58	3.58	4.61	below the threshold	below the threshold	below the threshold	below the threshold	4.38	3.58	pKd (SCRIB_1, Q14160): 4.67; pKd (DLG3_2, Q92796): 5.22; pKd (GOPC, Q9HD26): 5.03; pKd (APBA2_1, Q99767): below the threshold; pKd (LIMK2, P53671): below the threshold; pKd (GRIP2_4, Q9C0E4): below the threshold; pKd (SCRIB_2, Q14160): 4.28
DQPLEKSTKL [AKAP10, O43572]	below the threshold	5.41	below the threshold	below the threshold	below the threshold	3.96	3.64	below the threshold	below the threshold	below the threshold	4.75	below the threshold	5.33	4.55	below the threshold	below the threshold	3.73	4.15	below the threshold	5.69	pKd (SCRIB_1, Q14160): 3.72; pKd (DLG3_2, Q92796): 4.14; pKd (GOPC, Q9HD26): 3.86; pKd (APBA2_1, Q99767): below the threshold; pKd (LIMK2, P53671): below the threshold; pKd (GRIP2_4, Q9C0E4): below the threshold; pKd (SCRIB_2, Q14160): below the threshold
LEPAVRSSEL [SH2D3C, Q8N5H7]	below the threshold	5.51	below the threshold	3.67	below the threshold	3.66	below the threshold	below the threshold	below the threshold	below the threshold	4.38	below the threshold	3.86	4.49	below the threshold	below the threshold	below the threshold	below the threshold	below the threshold	4.26	pKd (SCRIB_1, Q14160): 3.78; pKd (DLG3_2, Q92796): below the threshold; pKd (GOPC, Q9HD26): below the threshold; pKd (APBA2_1, Q99767): below the threshold; pKd (LIMK2, P53671): below the threshold; pKd (GRIP2_4, Q9C0E4): below the threshold; pKd (SCRIB_2, Q14160): below the threshold
